Patent US20140073556A1 (published 2014)

Molecular target: T1, recombinant protein comprising the whole extracellular part of IL1RI (UniProt P14778 18-336)
T1 chain: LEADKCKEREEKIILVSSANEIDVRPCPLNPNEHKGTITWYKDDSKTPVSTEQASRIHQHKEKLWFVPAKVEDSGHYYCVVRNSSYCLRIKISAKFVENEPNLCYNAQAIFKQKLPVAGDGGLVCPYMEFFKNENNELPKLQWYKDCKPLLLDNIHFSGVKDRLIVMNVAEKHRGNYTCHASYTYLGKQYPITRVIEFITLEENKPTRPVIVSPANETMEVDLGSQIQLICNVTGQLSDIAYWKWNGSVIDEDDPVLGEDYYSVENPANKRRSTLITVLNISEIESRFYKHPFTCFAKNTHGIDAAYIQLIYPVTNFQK
Test: SPR

SGRKSSKMQA [Ilantafin peptide (SEQ ID NO:1), SGRKSSKMQA]
Kd: 0.171 µM
